This assay addresses CD20 antigen on CD20 positive Jeko-1 cells (human) (UniProt P11836). The assay is described as follows: flow cytometry on CD20+ Jeko-1 cells, secondary staining with anti-Biotin APC. (A flow cytometer gives signals particle by particle.)
Sequence of UniProt P11836 (P11836 whole entry): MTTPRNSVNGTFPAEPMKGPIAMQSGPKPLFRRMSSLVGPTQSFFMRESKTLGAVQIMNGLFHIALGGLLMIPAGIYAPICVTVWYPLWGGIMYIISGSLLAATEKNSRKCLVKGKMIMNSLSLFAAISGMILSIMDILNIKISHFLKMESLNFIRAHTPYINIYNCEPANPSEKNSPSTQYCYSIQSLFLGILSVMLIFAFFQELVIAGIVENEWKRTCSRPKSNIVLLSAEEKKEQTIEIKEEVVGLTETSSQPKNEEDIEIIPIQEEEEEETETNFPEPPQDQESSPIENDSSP

“biotin-crosslinker conjugated anti-CD20 FAb (Rtx Fab MS2)” gave a lowest concentration at which binding was detected of 0.1 µg/mL.

These data come from patent US20210275586A1.
